# T1: TvACTN-3r (alpha-actinin 3) (Trichomonas vaginalis, UniProt X5FVA1 1-1129)
# T1 sequence: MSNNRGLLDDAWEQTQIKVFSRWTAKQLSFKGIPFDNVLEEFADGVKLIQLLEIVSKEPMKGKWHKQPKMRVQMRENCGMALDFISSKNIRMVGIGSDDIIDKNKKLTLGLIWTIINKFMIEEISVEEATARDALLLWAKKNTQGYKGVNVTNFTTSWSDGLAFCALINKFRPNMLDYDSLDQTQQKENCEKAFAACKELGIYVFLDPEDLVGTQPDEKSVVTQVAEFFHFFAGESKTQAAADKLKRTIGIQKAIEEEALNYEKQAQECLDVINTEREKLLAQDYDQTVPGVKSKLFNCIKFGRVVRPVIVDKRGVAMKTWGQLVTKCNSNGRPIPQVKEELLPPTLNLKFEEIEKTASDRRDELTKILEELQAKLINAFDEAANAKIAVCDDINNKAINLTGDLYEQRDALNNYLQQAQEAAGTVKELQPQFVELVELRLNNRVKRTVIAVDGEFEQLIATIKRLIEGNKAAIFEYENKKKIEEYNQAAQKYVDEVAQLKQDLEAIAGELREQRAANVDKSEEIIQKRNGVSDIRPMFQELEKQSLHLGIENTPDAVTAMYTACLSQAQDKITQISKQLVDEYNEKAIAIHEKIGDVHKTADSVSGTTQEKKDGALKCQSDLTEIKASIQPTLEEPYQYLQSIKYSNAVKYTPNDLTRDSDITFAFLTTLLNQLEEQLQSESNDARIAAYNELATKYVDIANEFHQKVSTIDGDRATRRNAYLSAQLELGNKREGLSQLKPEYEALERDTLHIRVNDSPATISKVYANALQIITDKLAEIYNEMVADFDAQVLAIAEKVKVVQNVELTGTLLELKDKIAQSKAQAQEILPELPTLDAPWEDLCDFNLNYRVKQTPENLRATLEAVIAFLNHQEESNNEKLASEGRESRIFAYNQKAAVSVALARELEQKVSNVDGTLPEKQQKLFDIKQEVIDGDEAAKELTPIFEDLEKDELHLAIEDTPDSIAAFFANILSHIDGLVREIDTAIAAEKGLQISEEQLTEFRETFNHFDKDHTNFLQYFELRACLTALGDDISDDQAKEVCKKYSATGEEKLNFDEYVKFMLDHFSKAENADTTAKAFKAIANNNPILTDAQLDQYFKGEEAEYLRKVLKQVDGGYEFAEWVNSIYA
# T2: hIRP-1r (iron regulatory protein 1) (human, UniProt P21399 1-889)
# T2 sequence: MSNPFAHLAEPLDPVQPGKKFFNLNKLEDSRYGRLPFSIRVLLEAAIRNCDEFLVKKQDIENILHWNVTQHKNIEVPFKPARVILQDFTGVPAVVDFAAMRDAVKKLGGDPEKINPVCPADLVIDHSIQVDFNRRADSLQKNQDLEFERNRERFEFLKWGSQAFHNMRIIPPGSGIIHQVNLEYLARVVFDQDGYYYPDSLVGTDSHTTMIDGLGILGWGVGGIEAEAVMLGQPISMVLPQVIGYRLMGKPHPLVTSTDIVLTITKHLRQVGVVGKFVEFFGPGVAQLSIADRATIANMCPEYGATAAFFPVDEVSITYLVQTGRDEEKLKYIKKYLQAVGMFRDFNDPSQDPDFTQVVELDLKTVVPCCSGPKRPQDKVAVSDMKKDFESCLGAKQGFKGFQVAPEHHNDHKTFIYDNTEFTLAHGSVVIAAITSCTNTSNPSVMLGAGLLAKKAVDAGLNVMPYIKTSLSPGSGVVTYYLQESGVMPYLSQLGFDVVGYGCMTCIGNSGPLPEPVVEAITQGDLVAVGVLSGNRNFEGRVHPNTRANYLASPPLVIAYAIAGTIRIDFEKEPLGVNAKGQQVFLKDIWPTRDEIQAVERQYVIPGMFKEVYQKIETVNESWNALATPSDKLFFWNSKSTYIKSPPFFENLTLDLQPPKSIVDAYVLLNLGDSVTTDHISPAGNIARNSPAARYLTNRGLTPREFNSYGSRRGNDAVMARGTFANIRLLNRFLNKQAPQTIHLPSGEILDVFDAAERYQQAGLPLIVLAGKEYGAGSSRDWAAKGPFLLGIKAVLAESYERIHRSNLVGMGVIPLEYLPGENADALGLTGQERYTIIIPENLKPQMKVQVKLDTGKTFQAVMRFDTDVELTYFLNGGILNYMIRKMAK
# Experiments:
# [1] = molecular target: T1, TvACTN-3r (alpha-actinin 3); experiment: Northwestern blot; REMSA: 20 uL, 0.2 ng 32P-RNA, 1 ug hIRP-1r or 50 ug T. vaginalis extract, 5 ug heparin, 10 min at 25 C, 6% native gel; buffer, salt and pH not given; Northwestern conditions not given; conditions: protein: recombinant; label: 32P (alpha-32P UTP); hairpin
# [2] = molecular target: T2, hIRP-1r (iron regulatory protein 1); experiment: EMSA; 5 ug heparin; REMSA: 20 uL, 0.2 ng 32P-RNA, 1 ug hIRP-1r or 50 ug T. vaginalis extract, 5 ug heparin, 10 min at 25 C, 6% native gel; buffer, salt and pH not given; Northwestern conditions not given; conditions: protein: recombinant; (pGEX plasmid); label: 32P (alpha-32P UTP); hairpin
binder,measurement,setting,value
GGGACGUAUUUAAUUGAUUGCG (structured_RNA) [IRE-tvcp12 (wild type)],binding result,[1],binds
same,binding result,[2],binds

# Reference: publication PMC10143249, “The Non-Canonical Iron-Responsive Element of IRE-tvcp12 Hairpin Structure at the 3′-UTR of Trichomonas vaginalis TvCP12 mRNA That Binds TvHSP70 and TvACTN-3 Can Regulate mRNA Stability and Amount of P”
